This passage reports EC50, inhibition of thrombin-mediated hyper-permeability of hPPAEC (t=255 min) and concentration results from patent publication US20190374607A1.

The test addresses chemokine (C-X-C) motif receptor (CXCR) 4 (UniProt P61073). Description: cell-based or functional assay.

Chain of chemokine (C-X-C) motif receptor (CXCR) 4 (P61073 whole entry): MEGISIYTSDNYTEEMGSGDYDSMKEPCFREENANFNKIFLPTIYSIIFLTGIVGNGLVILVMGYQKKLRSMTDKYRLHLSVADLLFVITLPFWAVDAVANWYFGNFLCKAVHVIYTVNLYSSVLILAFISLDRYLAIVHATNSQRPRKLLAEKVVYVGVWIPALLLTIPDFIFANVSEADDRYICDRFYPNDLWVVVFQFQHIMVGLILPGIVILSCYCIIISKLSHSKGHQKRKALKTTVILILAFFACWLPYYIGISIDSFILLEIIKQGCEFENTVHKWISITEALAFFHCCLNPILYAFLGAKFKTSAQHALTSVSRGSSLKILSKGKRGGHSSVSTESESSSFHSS

“CXCL12 K27A/R41A/R47A (from UniProt P48061 22-89) (ligand)” showed an EC50, inhibition of thrombin-mediated hyper-permeability of hPPAEC (t=255 min) of 0.05 to 0.5 nM.
Substance “CXCL12 R47E (from UniProt P48061 22-89) (ligand)” registered an EC50, inhibition of thrombin-mediated hyper-permeability of hPPAEC (t=255 min) of 0.5 to 50 nM.
As to “CXCL12β (from UniProt P48061 22-93) (ligand)”, the EC50, inhibition of thrombin-mediated hyper-permeability of hPPAEC (t=255 min) was in the range of 0.05 to 0.5 nM.
The substance “Locked dimer CXCL122 (constitutively dimeric CXCL12 variant, L36C/A65C) (from UniProt O62657 22-89) (ligand)” showed a concentration at which thrombin-mediated hPPAEC barrier impairment was affected (t=255 min) of 50 nM.
